Assay: protease stability score; higher = more stable; yeast display proteolysis, trypsin and chymotrypsin;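 further: relative to predicted unfolded state with 0 unfolded-like and 1 meaning tenfold more protease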

Row | Sequence | protease stability score
1 | DEDRRDAEYARDIWTETLETGDEDLLHELMDPHVRIEIGDKETHGRENYVKKFIRMGVRLKHRNDKHVTIVNGRVHLFGEFHVIINGRHHDLRVEIVIEKVNGRWVVKSIHVH | 0.688
2 | DEDRRDIDDFLRLMLEATHTGDFKSFLELADPNMRIQIGDKEMVGRENIERWFEEDHRQAGIQRVETELRVRSKLLIGNKMHVDIEIRRRYNGVEEVYDVELILLKYNGVWWLEEFRVR | 1.58
3 | DEDRREVQRFIESVVHAIRTGDWRRILELADPNTRLDFDGKVFHGMHVSVKRIIEELEKVKGLRIKDMTTDSVNIYNGVVELDGTLDLEIGDYESHVSAKFVLLKFNGRWFIHEESTR | 1.59
4 | DEDRRHADEVLELFSEAFLTGNEEEMRKLADPHVRIDFNGRLKIGMETYKEEMDRFDHTEMRLESKHVHVFDGRVRIDGRLRIILRIGDKEIRHDHQVDILITKVDGRWIIKSMHIE | 2.53
5 | DEDRRIAEHLIKLYLQSTRTGDENSIRHLMDPNTRVIVGDKDRIGREAAEELLRRVDHLHDYKIEDIRFVGDFIDVEMRVDGEFDGVREHYRVILILFKVDGRWRIHLIEIR | 1.55
6 | DEDRRLMEELTRHRIDLKKTGNEELLRTLADPNTRALVNGKDMHGREQIATWLWQFREDLGVDHIDLEDFHVQGDKMEVHLDWKVNGQRIEVIVIIYIVDGRIKKEEMHFT | 0.416
7 | DEDSELAQIYNDLWRHTMETGDEHLSRRLLDPEVRLIINGREFIGWSLAIEVEHRLFKRFDHVHIDLEHITIQGDKIHTNSTLHIHFNGVTFEHRIHISIKKVNGRWINHTQRIQ | 0.801
8 | DEDSEMVWRMLEDWLHNFLTGNEELLEHLMDPNARFEQGDKEIHGREKIAKFLRKELEDLGVKIEFRDTSIKSINGRAHNDGTNIIRVNGREIRRDTRIDLTVIDGRIKEIRIEIN | 1.28
9 | DEDSEQARKFTELLFESIRTGDWKSLERLFDPNTRLEVGEFEHHGMEEATKFLIELRLEDFHIHSTKIDIQGEWIHIRLDGVERGYIGDKKRDTRSHIRLDNLKINGRWINQRLIIEIR | 1.13
10 | DEDSEVLSRILLHLTHHFSTGDFKEVTEMFDPHARAFVGDKELVGMELLRKFLHDLTKRLGVDHHDLRDDHIEIQGDKLRSEGKLRIDVNGREIKHHVHWILEKIDGRWVIREFRIV | 1.23
11 | DEDSKHVEHLMRLLIRLLITGDEDTLLNLIDPHARIDINGKEVHGREWAEKFIRRFERDLGVKHNHIEHIELQGDKAHVDFSLRIGDKMIQVHIDIWIVDGKLQSIRIKIK | 1.54
12 | DEDSYNSHRALEDLWRDLETGDEENLNKLADPHARVKQGDKEFHGMHHWIHFLESLGITKVHVRIHRIQTQGDKVRIVGEIEFNGRRHHSIIFIEKINGVWLVHKMEIK | 1.41
13 | DEDTARKQVQIYKDNDPNQLVRMFDENARLKVGDQTVDGREELERWVKRLRTRVDRYSYKNVDIQGERVVIDMVMVVDGKQVEFVVEFVVEDGRIKNAKVQARNKDEETKLQEAIG | 1.37
14 | DEDTDWIREMHRRHTEALRTGDEDTLRDLMDPHVRIFQGDKIHIGMHDLAKFLKEWRIKEIRVDIKHIESQGDKLRFSGDVEVHFEFNGKEVDLKLKALIVIVKINGKWVFKEIHHI | 0.862
15 | DEDTEAAIRILEDFTRHILTGDFERARELLDPHTRFDVNGVDLHGMDEVTRLLRIWKKRFDVWESDVHDVRSYDGRIHIDTHLRVRYDGVEEHTRTIFIFNKVNGRWLIEEIRVR | 1.44
16 | DEDTEAAREMLEIIVKSLFTGDEKSLLRLADPNWKLHQGNFSWHGRESVRRFHKEIRVHFDDIRVHRFSTINGRVHIDGHIHITVHIDGQTIHIDSDTTWHMVIINGKMHHAIIIHV | 0.881
17 | DEDTEDLKRLIKLFVDLIRTGDWEELEKLLDPNVRLHFNGRDYHGRELALELMKVFGVDHIQLREVRVVNGKAENRTELIVNGREHEEHVIMEKIDGRWRIRSFEFR | 1.3
18 | DEDTEEMRRFLKAFIRALETGNFEETLRLLDPNVRIRIGDKQLIGREEWHKWRERVDHYEVDDIEIEDMRVIGNKVHVFGRVDIKLIIGDKEHQDRKEVHIIMLKVNGRWLIHEIEVH | 1.91
19 | DEDTEEVRKADKIYIHYLLTGDEHKNNRLADPNVRLHWNGREFHGMELFTEAFREIRHELRFDHITHHHLRMFNGRLDSDTRVDGDINGVRTIFEMKLTLLKVDGRWVLKSTEIR | 1.26
20 | DEDTEEWRHLLEEYREFIETGDEDYLRTMLDPHVRVVVNGRDHHGWKAFNFMLRHIRVRHVHIHDIRLFNGQVEVDSRIDGIVNGRRLIFRLDIVAFKIDGQWIAQSFTII | 1.65
21 | DEDTEIAFELVDLVMKSLKTGDEHLMLRLMDPHTRLEVGDKEHHGWEEILKELSEIRIHLEDVDHRDVRIYGEKIHVDVEVDITIEYNGRRTRVKTRLEVDILKVNGQWRVKQVSLK | 2.07
22 | DEDTEIALKLHRLILHFIHTGDWENFAKYLDPRTKLHVGEFNNVGMEEIRKTWKHLRLRIDMYDERRVEVIDGRLHVEGEIRSTVHIGDKELHFERDSNFILVVINGRVKRIEINIV | 1.47
23 | DEDTEKAEKFVHSFLMAMLTGDEEELWKYLDPRVRTIIGDKHYHGREQTKKAWEELGIDHSDVERFHVHIQGDKVEVHIDLRVHVNGRSYDVHIILIVTKINGKWYIDTLIFRKV | 1.44
24 | DEDTEKHKELLEMLVVAYLTGDFRHWWDLADPHVKLDQGDKHLHGREDMVEWIRRFIKKFKNVQVKIRHIHHQGNKDNIDGILDVDGREYHVEIIIVLVDGVIRSEEIRVK | 1.87
25 | DEDTEKLEKMIEELFKLWLTGDEEKLTHLADPNMRVDVNGRDLHGRHLMSSLWRQIRIEDQRLRIRDWEFFDGRVTIHSHITVRGHINGRHEEITHDVRIVVDKINGRWIIREFRIH | 1.27

Row | Sequence | protease stability score
26 | DEDTEKLKKSLEVIWRLLHTGDENSLEHLMDPNARLDINGVTQVGRTASKIIIDRFDHIRHIHINDVRFIDGRAHVHGKTDGIQGDKRYEVSMEIILLKINGRWIIHQFYTE | 1.38
27 | DEDTEKVERIAKEVINLHETGDWENWSKQADPHTRVELNVDGQHFEYIGREKFREALEWLGIKHSHFHHIEIIGDKLHVDGYSFFNGRRTRVELRFVIVNGRIKHQIIIIK | 0.848
28 | DEDTEKVRWFFEVLKRASDTGNEEEELKLLDPNARYIFNGKNDHGRRAWERFKKNLGVKHVEIHPRDFDVVDGRIHIEIELRIHVDGREIRFDIEIIVEKFNGRWYLRSIHID | 0.376
29 | DEDTELAERWVELFRKSVETGDEHKLEKLLDPHVKLDIGDKRYHGRELAVDTLKTMIDEMRSDHVTIDRVDVFDGRVILHSRIESTVDGRRTELEMRIVARKIDGRWVVESLEIN | 1.49
30 | DEDTELDETISREIIHAEKTGNEDWLTKLIDPNPRIEINGRIFHGMDFWLKFLKDMGVDHIDVKRDRAYNGVLDMDGYIIVNGREIRTHIHIVIVDGKATHIRIEIR | 1.61
31 | DEDTELLKHHLDIFRDAVRTGDEEKERKYADPDDRINVDGVIFHGWEESKRFYEHWRVKDFHVHDMKVQGDKADVESRLVVQINGREVIFRVKLIITKVNGRWKHTMLEIK | 1.62
32 | DEDTELMRHIIERLLRSSKTGDEDSMADLLDPNVRIVNEDERLHGRELASRFMYELRIHHFELTRFKVYDGKIDIDGIHDGEINGVRRRVWVEFISVKVNGKWQIKELRIG | 1.35
33 | DEDTELSKHFDDVFAEYVETGDEHSLRHLMDPNTRILVNGVDLVGWELVLDHLDRHLKEMRIKRVTTHEMRIYGDKVTIHSKLKMHIDGRDVDTDTEIIVKKVDGKWIMHFVNLH | 2.25
34 | DEDTELVYRIIKRLKEYIKTGDEDSIKELLDPNARIEVGDKEIHGRDRFAHMLVEIWSKDHKVELKDSRTFPNHLEYDGVLREDIEIDGKRIHRTRKLIVLVRKVNGRWYVEEIIFH | 2.19
35 | DEDTENVLRALEQFDEKLLTGDWRSLEELADPHVRIDINGQDIHGRETHSEHFRRIKNLKLEHLDVHSFTVIGNKVELDTEIIGEIDGRRRIFRVRMRILKIDGRWVLHSVEIG | 1.46
36 | DEDTEQAERVSHIMLHLYHTGDEEKFNHLADPNVRVEVNGVEIIGRHAFMKHLREIRLHDLRIEEVHIRVFNGRLRIEIKGRMDGHFNGVTKRTEVDILIIVLKVDGRWHVHSFSETIH | 1.6
37 | DEDTEQLEWILKLHLEISRTGDEHSEHHMVDPNTRIEVGDKELHGREEIVKWFAHIRIDHIDIKRYHIFNGRVRIDGRVEGNVDGRETTMRVIFLSDKFNGRWRHRSVIVR | 1.53
38 | DEDTEQVERALHLWVKLVQTGNEEVIRHLLDPNVRIIVNGVDYHGRSALDELQRRVDVNTWKRVRLHDASVYNGRMHIDGEIDTQEIVGDKRIIIHTKVDMVSSKVNGKWIFHSMIFH | 0.848
39 | DEDTESATKALQLFIHLFITGDEEQLLRLLDPNARNDIGDYHRHGREFLEFFVERVKNVTFHLHDMRLELIGDKIHLIIHGDEWVNGVRLRTELVILMEKVNGRWVIRSVRVIFR | 1.75
40 | DEDTEVIERSITHWMKVLETGDWEDIERNADPNARMDINGREFHGREEVSRHLREDLDRLGIERVRVEIKHYRVQGEFIDIHGILRQGEYESKIHVRASKINGKWVLESLEVV | 0.078
41 | DEDTHDNRHALELLLRFLETGDEDSLRELADPNARLSVNGRNQHGREDLFSTWSEMGVDHMEIKSHRIVDGRLLLHGHIKFNGRREDVHIFMVKIDGRWYIEEVKIL | 1.56
42 | DEDTHDTKKAVEEFIHTVRTGDEHSLRRQLDPNARVEVGDKEQHGRLFIEWFIRMLGIDNVDVRVHDHHVYDGRVEVDLLLHVDGRDFRVNIVWDKINGQWRNRMVIFR | 1.17
43 | DEDTHEFRHFIELRRHNLETGNERALAELLDPNVRILFDGVDIVGRDSWIKHLRELGYEQVDSRVNIKRLEIWNGRAHMDGRVRRHFDGKTTEVDVHLVLVKFNGRWVIESIHNH | 0.555
44 | DEDTHKLDKHVKEVLTAWETGDEEMLLRLIDPDARITIGDKEVIGMEEALKHWKEIRIKHLELTDFKLVDGQLDSKVQVHSEVNGRRFETTIRIVLHKINGKWRIRSMTFI | 1.34
45 | DEDTHLAKVVLEIFLHLMRTGDFKETWEYADPHVRIDIGDKHLHGREELARLMEELGIDHFEIRDVHLQGDKLHIRTDVDFNGVRTHVVFIILKVDGRWVLTHVRIE | 1.46
46 | DEDTHMMELFNKTLHHVERTGDETLLNKLMDPHARLEIGDKHNHGRENVERERRRLLKELGHTQVEFRIREIRFQGDKLTIHGHTLVNGVHFDIRLLVWKVDGRWHMESFHLE | 1.46
47 | DEDTHMVERALTLLYKTLHTGDEDLYRELIDPHVRVEINGQELIGRELLIEWFREMVERFPNIRIEIHDIRLFDGRLESDSRLHYGDKSREVHLIARKVNGQWRLESLKVE | 1.41
48 | DEDTHNASEALEYLWRVIMTGDEEQVERMADPNVRVVFNGKHLHGREWFLRVLLHIRFDRVRIEHIHTQGEKVRTDSKSDIEFDGRRIEVDIEIYIHKINGRWIVKMFIFR | 2.89
49 | DEDTHRLELVLDLWSFAMLTGDEETLTKLIDPNMRIEIGDKIAHGREKLHEMLREIRIQIHHVHLDDYRVYGNKITLHVHIRMTLHVDGRTIHTELKTEIIIHKIDGKWVFHKVRFE | 1.28
50 | DEDTHVMEHALREWSHIFHTGDEDRLLELMDPRTRATVNGVDLHGMEEITRLETEIIRSHGMKFRTFLLEDFKTIDGKIHVHSRLNVDINGKERELRVRIIAKKVNGRWVVTKVEVG | 0.952
